The target of this assay is T1, CAR on A549 cells (human (endogenous in A549), UniProt P78310 20-365).
T1 sequence: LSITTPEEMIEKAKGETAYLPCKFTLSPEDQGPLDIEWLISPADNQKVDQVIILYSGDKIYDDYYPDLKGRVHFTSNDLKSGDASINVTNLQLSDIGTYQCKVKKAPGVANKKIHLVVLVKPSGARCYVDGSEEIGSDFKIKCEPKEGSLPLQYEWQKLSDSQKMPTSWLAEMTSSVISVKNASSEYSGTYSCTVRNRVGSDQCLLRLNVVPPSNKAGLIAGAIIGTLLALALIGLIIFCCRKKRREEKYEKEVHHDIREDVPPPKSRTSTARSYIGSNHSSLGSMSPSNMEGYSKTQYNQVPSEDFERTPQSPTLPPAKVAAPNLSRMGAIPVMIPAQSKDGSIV
As to the kind of experiment: cell-based or functional assay.

B1: Ad5 fiber (free trimeric fiber molecules released from Ad5-CRAD or WT Ad5 infected cells) (natural protein)
chain: MKRARPSEDTFNPVYPYDTETGPPTVPFLTPPFVSPNGFQESPPGVLSLRLSEPLVTSNGMLALKMGNGLSLDEAGNLTSQNVTTVSPPLKKTKSNINLEISAPLTVTSEALTVAAAAPLMVAGNTLTMQSQAPLTVHDSKLSIATQGPLTVSEGKLALQTSGPLTTTDSSTLTITASPPLTTATGSLGIDLKEPIYTQNGKLGLKYGAPLHVTDDLNTLTVATGPGVTINNTSLQTKVTGALGFDSQGNMQLNVAGGLRIDSQNRRLILDVSYPFDAQNQLNLRLGQGPLFINSAHNLDINYNKGLYLFTASNNSKKLEVNLSTAKGLMFDATAIAINAGDGLEFGSPNAPNTNPLKTKIGHGLEFDSNKAMVPKLGTGLSFDSTGAITVGNKNNDKLTLWTTPAPSPNCRLNAEKDAKLTLVLTKCGSQILATVSVLAVKGSLAPISGTVQSAHLIIRFDENGVLLNNSFLDPEYWNFRNGDLTEGTAYTNAVGFMPNLSAYPKSHGKTAKSNIVSQVYLNGDKTKPVTLTITLNGTQETGDTTPSAYSMSFSWDWSGHNYINEIFATSSYTFSYIAQE
In the case of B1, the “percent GFP+ cells 24 hr after super-infection with Ad5-PGK-GFP (MOI 10) of A549 cultures infected 6 days before with Ad5-CRAD (MOI 1.0), relative to cultures without prior Ad5-CRAD infection” value was 60 % of control.

Values taken from paper PMC2793518, “Fiber Mediated Receptor Masking in Non-Infected Bystander Cells Restricts Adenovirus Cell Killing Effect but Promotes Adenovirus Host Co-Existence” (PLoS ONE, 2009).
